These results are taken from article PMC4228697.

By Kd is commonly meant the free concentration of one partner at which half of the binding sites on the other are occupied at equilibrium, for simple one-to-one binding. A higher Kd goes with a looser complex.

What all share (experiment): SPR
In general terms: Surface plasmon resonance follows binding to a sensor surface in real time, without labels.

Experiment [1] concerns the target CCR2 (wheat-germ proteoliposome) (human) (UniProt P41597).
The target in experiment [2] is CXCR1 (wheat-germ proteoliposome) (human) (UniProt P25024).
For experiment [3], the target named is CXCR2 (wheat-germ proteoliposome) (human) (UniProt P25025).
For experiment [4], the target named is C5aR (wheat-germ proteoliposome) (human) (UniProt P21730).
Sequence of UniProt P21730 (P21730 whole entry): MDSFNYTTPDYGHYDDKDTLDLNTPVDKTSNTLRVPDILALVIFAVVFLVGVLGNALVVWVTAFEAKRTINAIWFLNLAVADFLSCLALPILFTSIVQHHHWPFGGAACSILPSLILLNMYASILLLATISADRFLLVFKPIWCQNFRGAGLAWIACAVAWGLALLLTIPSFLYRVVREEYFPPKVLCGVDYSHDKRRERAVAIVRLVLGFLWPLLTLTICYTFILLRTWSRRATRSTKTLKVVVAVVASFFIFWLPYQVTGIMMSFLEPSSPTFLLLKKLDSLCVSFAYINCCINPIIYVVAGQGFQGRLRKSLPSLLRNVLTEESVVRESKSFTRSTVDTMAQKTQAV

Sequence of UniProt P25025 (P25025 whole entry): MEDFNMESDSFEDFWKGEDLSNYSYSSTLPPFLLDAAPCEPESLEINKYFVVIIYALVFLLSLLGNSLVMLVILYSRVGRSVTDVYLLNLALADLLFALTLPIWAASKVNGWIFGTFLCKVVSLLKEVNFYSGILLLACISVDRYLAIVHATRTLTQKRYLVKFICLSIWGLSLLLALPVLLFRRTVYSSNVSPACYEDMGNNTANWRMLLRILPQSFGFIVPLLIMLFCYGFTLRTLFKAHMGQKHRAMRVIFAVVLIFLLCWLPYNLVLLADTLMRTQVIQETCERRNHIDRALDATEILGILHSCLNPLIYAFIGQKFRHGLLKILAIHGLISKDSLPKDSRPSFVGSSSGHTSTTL
Sequence of UniProt P25024 (P25024 whole entry): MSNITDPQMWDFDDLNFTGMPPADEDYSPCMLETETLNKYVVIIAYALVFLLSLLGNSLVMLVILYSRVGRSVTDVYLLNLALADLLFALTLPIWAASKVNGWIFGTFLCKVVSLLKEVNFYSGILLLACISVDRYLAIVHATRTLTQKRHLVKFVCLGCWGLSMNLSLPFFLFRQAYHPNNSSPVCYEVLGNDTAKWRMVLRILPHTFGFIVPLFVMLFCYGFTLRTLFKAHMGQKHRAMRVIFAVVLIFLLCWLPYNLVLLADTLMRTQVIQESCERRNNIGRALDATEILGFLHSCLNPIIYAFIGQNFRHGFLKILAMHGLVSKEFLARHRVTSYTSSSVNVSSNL

As for “MCP-1 (from UniProt P13500 24-99) (ligand)”, the Kd in experiment [1] turned out to be 0.84 nM.

In the case of “γ-Hemolysin component HlgA (from UniProt P0A074 30-309) (natural protein)”, the figures for the Kd in experiment [1], in experiment [2] and in experiment [3] were 3.51 nM, 5.69 nM and 27.2 nM, respectively.

In the case of “γ-Hemolysin component HlgC (from UniProt Q07227 30-315) (natural protein)”, the Kd in experiment [4] is 5.64 nM.
